For three molecules, fold increase in blocking against a simple mix of 9E3 and 3H4 and blocking ELISA signal (PD-L1Fc bound to PD-1) results are on record in patent EP3733708A1.

Test [1] addresses Recombinant Human PD-1 (R&D Systems Inc) (human) (UniProt Q15116). Briefly: second ELISA blocking assay, PD-1 / PD-L1Fc; reference: unlinked mix of 9E3 and 3H4.
Test [2] has the same target. Briefly: ELISA blocking, PD-1 coated, biotinylated PD-L1Fc, streptavidin-HRP; antibody at 10000 ng/ml.
Test [3] has the same target. In words: ELISA blocking, PD-1 coated, biotinylated PD-L1Fc, streptavidin-HRP; antibody at 100 ng/ml.
Test [4] has the same target. In words: ELISA blocking, PD-1 coated, biotinylated PD-L1Fc, streptavidin-HRP; antibody at 0.1 ng/ml.
For test [5] the target is unchanged. Briefly: ELISA blocking, PD-1 coated, biotinylated PD-L1Fc, streptavidin-HRP; antibody at 0.001 ng/ml.
Test [6] has the same target. Briefly: ELISA blocking, PD-1 coated, biotinylated PD-L1Fc, streptavidin-HRP; antibody at 1 ng/ml.
For test [7] the target is unchanged. Briefly: ELISA blocking, PD-1 coated, biotinylated PD-L1Fc, streptavidin-HRP; antibody at 10 ng/ml.
For test [8] the target is unchanged. In words: ELISA blocking, PD-1 coated, biotinylated PD-L1Fc, streptavidin-HRP; antibody at 0.01 ng/ml.
Test [9] has the same target. In words: ELISA blocking, PD-1 coated, biotinylated PD-L1Fc, streptavidin-HRP; antibody at 1000 ng/ml.

Chain of UniProt Q15116 (Q15116 25-167 limits assumed): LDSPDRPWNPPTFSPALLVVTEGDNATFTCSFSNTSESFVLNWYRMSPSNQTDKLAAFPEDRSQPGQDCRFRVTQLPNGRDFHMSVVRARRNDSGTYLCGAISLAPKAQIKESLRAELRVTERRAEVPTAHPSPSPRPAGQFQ

B1: Bispecific clone GS388 (9E3-17aa-3H4) (bispecific antibody)
chain: QLQLVEFGGGLVQAGGSLRLSCAASGSIFRGNAMVWYRQAPGKERELVATITNGGSTNYADSVKGRFTISRDNAKNTVYLQMNSLKPEDTAIYYCNDVIRGESGIYYPLNYWGQGTQVTVSSGGSEGGGSGGGGESGGGQVQFVESGGGLVQPGGSLRLSCAVSGSTFVVKHFAWFRQPPGNRRELVAATRGEGTTYYRDSVMGRFTISSDNPENTVYLQMTSLQPEDTAVYFCNVRSPGGEEFWGKGTLVTVSS
On to B1, for which the fold increase in blocking against a simple mix of 9E3 and 3H4 in test [1] was > 10 fold. For the same molecule, the blocking ELISA signal (PD-L1Fc bound to PD-1) in test [2] turned out to be 0.102; in test [3], 0.197; in [4] it was 1.1; in test [5] it was 1.11; in test [6], 1.09; in test [7] it was 0.947. The blocking ELISA signal (PD-L1Fc bound to PD-1) was 1.12 in test [8] and 0.103 in test [9].

B2: 3H4 single domain antibody (VHH)
VHH: QVQFVESGGGLVQPGGSLRLSCAVSGSTFVVKHFAWFRQPPGNRRELVAATRGEGTTYYRDSVMGRFTISSDNPENTVYLQMTSLQPEDTAVYFCNVRSPGGEEFWGKGTLVTVSS
In the case of B2, the blocking ELISA signal (PD-L1Fc bound to PD-1) in [2] turned out to be 0.833; in test [3], 0.964; in test [4] it was 1.07; in test [5], 1.11; in [6] it was 1.06; in test [7], 1.1. Further, the blocking ELISA signal (PD-L1Fc bound to PD-1) in [8] amounted to 1.08; in test [9], 0.927.

B3: 9E3 single domain antibody (VHH)
VHH: QLQLVEFGGGLVQAGGSLRLSCAASGSIFRGNAMVWYRQAPGKERELVATITNGGSTNYADSVKGRFTISRDNAKNTVYLQMNSLKPEDTAIYYCNDVIRGESGIYYPLNYWGQGTQVTVSS
In the case of B3, the blocking ELISA signal (PD-L1Fc bound to PD-1) in test [2] stood at 0.104; in test [3] it was 0.965; in test [4], 1.08; in test [5], 1.17; in test [6], 1.06; in test [7], 1.09. In addition, the blocking ELISA signal (PD-L1Fc bound to PD-1) in [8] turned out to be 1.11; in test [9], 0.457.
